# Experimental data taken from article PMC12483565, “CBFβ-SMMHC–driven leukemogenesis requires enhanced RUNX1-DNA binding affinity in mice”.
# B1: CSF1R promoter probe (EMSA) (dsDNA)
# DNA 1: CAAACTCTGTGGTTGCCTTG
# DNA 2: CAAGGCAACCACAGAGTTTG
# Target: RUNX1c-R201Q (human, UniProt Q01196-8 1-480, R201Q)
# Test: EMSA; BLI: 20 mM Tris-HCl pH 8.0, 150 mM KCl, 1 mM EDTA, 1 mM DTT, 0.02% Tween-20, with 800 nM CBFβ or 400 nM CBFβ-SMMHC/mutant, preincubated 37 °C 30 min; EMSA: room temperature 30 min, 4-12% TBE gel, 1x TBE
# Conditions: protein: ivt; label: IRDye700
# Sequence of RUNX1c-R201Q (Q01196 other isoform, or with tags, fused parts or gaps R201Q | R201Q R201Q): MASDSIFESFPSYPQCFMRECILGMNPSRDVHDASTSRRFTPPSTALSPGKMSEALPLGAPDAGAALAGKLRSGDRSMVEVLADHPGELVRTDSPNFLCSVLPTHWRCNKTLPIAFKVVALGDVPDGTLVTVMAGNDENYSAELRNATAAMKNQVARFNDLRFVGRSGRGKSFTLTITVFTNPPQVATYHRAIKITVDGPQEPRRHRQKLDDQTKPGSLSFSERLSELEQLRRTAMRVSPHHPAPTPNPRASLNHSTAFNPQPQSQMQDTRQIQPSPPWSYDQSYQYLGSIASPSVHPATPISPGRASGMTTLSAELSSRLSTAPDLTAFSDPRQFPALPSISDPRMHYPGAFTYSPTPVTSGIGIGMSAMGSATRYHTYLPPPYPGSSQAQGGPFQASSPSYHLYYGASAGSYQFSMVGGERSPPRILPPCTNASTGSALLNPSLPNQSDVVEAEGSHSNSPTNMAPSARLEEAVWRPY
binder,measurement,value
B1,binding result,no binding
